Laboratory results as given in patent US20210338833A1 (MIT, published 2021).

Experiments:
[1] = biological target: T1, FMC63 Mimotope (C5) RMCPWSCYEL; assay: flow cytometry of yeast clones titrated with biotinylated FMC63 scFv monomer, MFI (geometric mean); axis without unit, nM by the legend paragraph 211
T1 peptide: RMCPWSCYEL

[2] = biological target: T2, FMC63 Mimotope (C7) RLCPWACQEQ; assay: as above
T2 peptide: RLCPWACQEQ

[3] = biological target: T3, FMC63 Mimotope (H1) RVCPWSCMPI; assay: as above
T3 construct: Not the 1D3 mimotope that is also called H1
T3 peptide: RVCPWSCMPI

[4] = biological target: T4, FMC63 Mimotope (E6) RLCPWSCVPI; assay: as above
T4 peptide: RLCPWSCVPI

[5] = biological target: T5, FMC63 Mimotope (G9) RLCPWSCREL; assay: as above
T5 construct: Parent of the alanine scan
T5 peptide: RLCPWSCREL

[6] = biological target: T6, FMC63 Mimotope (G11) RLCPWNCREL; assay: as above
T6 peptide: RLCPWNCREL

[7] = biological target: T7, FMC63 Mimotope (F12) RICPWNCKEL; assay: as above
T7 construct: also called F12 mimotope
T7 peptide: RICPWNCKEL

[8] = biological target: T8, FMC63 Mimotope (F8) RLCPWDCREL; assay: as above
T8 peptide: RLCPWDCREL

[9] = biological target: T9, FMC63 Mimotope (H8) RICPWACVEL; assay: as above
T9 peptide: RICPWACVEL

[10] = biological target: T10, FMC63 Mimotope (H11) RICPWSCREL; assay: as above
T10 peptide: RICPWSCREL

[11] = biological target: T11, FMC63 Mimotope (A12) RRCPWSCKKQ; assay: as above
T11 peptide: RRCPWSCKKQ

[12] = biological target: T12, FMC63 mimotope K-A1 PRKHSGRICPWNCKELDNPPFIFGNR (not fully specified); assay: flow cytometry of yeast clones titrated with biotinylated FMC63 scFv and streptavidin-PE, MFI (geometric mean); no unit on the concentration axis
T12 peptide: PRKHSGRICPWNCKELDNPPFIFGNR

[13] = biological target: T13, FMC63 mimotope K-A3 RICPWNCKELPTPYMMFDM; assay: as above
T13 peptide: RICPWNCKELPTPYMMFDM

[14] = biological target: T14, FMC63 mimotope K-A5 PLSRICPWNCKELYWLPQR; assay: as above
T14 peptide: PLSRICPWNCKELYWLPQR

[15] = biological target: T15, FMC63 mimotope K-A10 AKRRERDYVGRICPWNCKELHPDTRHRIPV; assay: as above
T15 peptide: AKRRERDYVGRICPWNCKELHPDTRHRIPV

[16] = biological target: T16, FMC63 mimotope K-A11 RICPWNCKELYWLPDE; assay: as above
T16 peptide: RICPWNCKELYWLPDE

[17] = biological target: T17, FMC63 mimotope K-B5 PPPRICPWNCKELPLDWPW; assay: as above
T17 peptide: PPPRICPWNCKELPLDWPW

[18] = biological target: T18, FMC63 mimotope K-C2 RICPWNCKELPSPPRIFGNR; assay: as above
T18 peptide: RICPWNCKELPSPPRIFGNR

[19] = biological target: T19, FMC63 mimotope K-D11 AGTRICPWNCKELYWLPDE; assay: as above
T19 peptide: AGTRICPWNCKELYWLPDE

[20] = biological target: T20, FMC63 mimotope K-F5 QFQRICPWNCKELYWLPDQ; assay: as above
T20 peptide: QFQRICPWNCKELYWLPDQ

Measured: binding result

B1: FMC63 scFv (scFv)
scFv: DIQMTQTTSSLSASLGDRVTISCRASQDISKYLNWYQQKPDGTVKLLIYHTSRLHSGVPSRFSGSGSGTDYSLTISNLEQEDIATYFCQQGNTLPYTFGGGTKLEITGGGGSGGGGSGGGGSEVKLQESGPGLVAPSQSLSVTCTVSGVSLPDYGVSWIRQPPRKGLEWLGVIWGSETTYYNSALKSRLTIIKDNSKSQVFLKMNSLQTDDTAIYYCAKHYYYGGSYAMDYWGQGTSVTVSS
modifications: biotinylated
notes: Whole scFv entry (VL-(G4S)3-VH); also called FMC63-scFv monomer; biotinylated FMC63 scFv
binds: all assays above
